The supplement of paper PMC9732359
± gives the uncertainty stated by the source.

Assay: protein stability index of a GFP-peptide fusion (yeast GPS) (PSI 1-4); higher = more stable; sorted into four equal gates, so the index is relative within each strain
Outline: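 Sequencing reads from sorted gates were used to score each peptide. The library consisted of tiled 17-residue yeast protein peptides fused downstream of GFP on a Cherry-expressing plasmid, pooled and carried in yeast. Mid-log cultures in leucine-free medium were split into four equal gates by GFP/Cherry ratio, and each gate's plasmids were PCR-amplified and Illumina-sequenced. The protein stability index adds up, over all gates, the read frequency multiplied by the gate number.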

| Sequence | protein stability index (doa10∆) | protein stability index (pdr5∆) | protein stability index (san1∆) | protein stability index (ubr1∆) |
| --- | --- | --- | --- | --- |
| KESDESKSAFSFGSKPT [YJL041W/NSP1] | 3.1 ± 0.048 | 3.22 ± 0.061 | 3.198 ± 0.029 | 3.108 ± 0.031 |
| KESQLPRIQRADPVALY [RPB5] | 2.32 ± 0.069 | 2.63 ± 0.058 | 2.5 ± 0.089 | 2.59 ± 0.048 |
| KFELGRQPANTKIGAKR [RPS8A] | 2.87 ± 0.06 | 3.1 ± 0.068 | 2.91 ± 0.11 | 3.18 ± 0.055 |
| KFFIMIVKGNIIDEIKC [POP4] | 1.32 ± 0.055 | 1.47 ± 0.055 | 1.49 ± 0.094 | 1.66 ± 0.056 |
| KFLILNENPINKIMTNQ [NUT1] | 2.9 ± 0.11 | 2.75 ± 0.1 | 2.67 ± 0.07 | 2.99 ± 0.089 |
| KFQKLLQNSERDVELSS [SMC4] | 2.82 ± 0.065 | 3.18 ± 0.048 | 2.94 ± 0.041 | 3.05 ± 0.052 |
| KFSDIIQGISKMYSDDT [BRN1] | 2.93 ± 0.062 | 2.71 ± 0.066 | 2.14 ± 0.08 | 2.3 ± 0.085 |
| KGLLIWRLLFIDKFIMV [GRR1] | 1.43 ± 0.062 | 1.35 ± 0.048 | 1.41 ± 0.089 | 1.5 ± 0.052 |
| KGLQIYQSSVQEPFLNS [PRP8] | 2.89 ± 0.05 | 2.94 ± 0.044 | 2.76 ± 0.048 | 2.83 ± 0.04 |
| KGLTYLHLDYNFNLKPT [PRP8] | 2.19 ± 0.032 | 2.12 ± 0.035 | 2.05 ± 0.05 | 2.22 ± 0.03 |
| KGRFAVHRITDEEASYK [RPS4A] | 3.13 ± 0.075 | 3.2 ± 0.091 | 3.35 ± 0.061 | 3.33 ± 0.07 |
| KGSRKSSKAATPDTKNF [SNF12] | 3 ± 0.063 | 2.87 ± 0.052 | 3 ± 0.058 | 2.98 ± 0.042 |
| KGSVAAKTFLEKRWNDE [PRE8] | 2.38 ± 0.18 | 1.28 ± 0.17 |  |  |
| KGTGEESNDRINKIVEI [YGR119C/NUP57] | 3.66 ± 0.18 | 3.18 ± 0.16 | 2.93 ± 0.17 | 2.89 ± 0.15 |
| KGTNGKKALKVRTSATF [RPL25] | 3.15 ± 0.13 | 3.03 ± 0.12 | 3.06 ± 0.13 | 3.3 ± 0.068 |
| KGTVFQFEIPISDDDDS [POP4] | 3.3 ± 0.17 | 2.47 ± 0.15 | 2.29 ± 0.15 | 3.13 ± 0.042 |
| KHEDLSLEQRQEVTKFA [RPN4] | 2.85 ± 0.15 | 3.05 ± 0.23 | 2.84 ± 0.1 |  |
| KHIKNLEDDSLLSYPIK [RPN12] | 2.9 ± 0.047 | 2.44 ± 0.033 | 2.56 ± 0.045 | 2.617 ± 0.026 |
| KICRGRMNTIITHPGKM [SIR4] | 3.36 ± 0.28 |  | 3.23 ± 0.16 |  |
| KICSSEMINEQKLPQYI [RGR1] | 3.02 ± 0.11 | 2.9 ± 0.13 | 3.01 ± 0.15 | 2.98 ± 0.1 |

| Sequence | protein stability index (doa10∆) | protein stability index (pdr5∆) | protein stability index (san1∆) | protein stability index (ubr1∆) |
| --- | --- | --- | --- | --- |
| KIELIKNNLLIPDLSIQ [RPN12] | 2.75 ± 0.055 | 2.23 ± 0.042 | 2.66 ± 0.046 | 2.06 ± 0.036 |
| KIENSVQIGAEIILDFL [CSI1] | 2.73 ± 0.24 | 2.83 ± 0.16 | 2.38 ± 0.12 | 2.61 ± 0.11 |
| KIHSILPVMESLDSCTA [YJR042W/NUP85] | 2.24 ± 0.09 | 2.23 ± 0.079 | 2 ± 0.13 | 2.24 ± 0.068 |
| KIIALQPNEISFKYLSN [RGR1] | 2.43 ± 0.12 | 2.38 ± 0.12 |  | 2.48 ± 0.098 |
| KIKLLTQATSEDGTSAS [RPC19] | 2.61 ± 0.065 | 2.85 ± 0.079 | 2.89 ± 0.062 | 3.11 ± 0.078 |
| KIPSASIWGNGYSGYGN [SNF5] | 3.25 ± 0.1 | 3.27 ± 0.11 | 3.42 ± 0.095 | 3.3 ± 0.05 |
| KIQASDVNIIGKDRIAI [RPO31] | 2.82 ± 0.11 | 3.05 ± 0.098 | 2.87 ± 0.087 | 3.35 ± 0.081 |
| KIQQQQPGYADLEHKED [QCR6] | 2.51 ± 0.062 | 2.71 ± 0.071 | 2.69 ± 0.069 | 2.69 ± 0.044 |
| KIRMLTQAAEFLSPYIS [IRR1] | 1.84 ± 0.04 | 2.46 ± 0.047 | 1.74 ± 0.074 | 2.23 ± 0.045 |
| KITTSTEDQKVTTNINW [SRP68] | 3.13 ± 0.078 | 3.13 ± 0.072 | 3.21 ± 0.068 | 3.11 ± 0.054 |
| KIVVLSRTGPVFDLCWN [RRP43] | 2.07 ± 0.057 | 2.2 ± 0.048 | 2.91 ± 0.066 | 2.39 ± 0.035 |
| KIYDAFPQTAMLRRHAA [DIS3] | 2.41 ± 0.086 | 2.71 ± 0.079 | 2.58 ± 0.12 | 2.4 ± 0.061 |
| KKASDLVDTPSNNTAAT [NUT1] | 3.28 ± 0.1 | 3.17 ± 0.074 | 3.11 ± 0.046 | 3.21 ± 0.06 |
| KKCLKLAYENKITDKED [POP4] | 2.698 ± 0.022 | 2.785 ± 0.027 | 2.797 ± 0.02 | 3.032 ± 0.025 |
| KKIRFLQLIIFLRTQFL [RGR1] | 1.53 ± 0.057 | 1.27 ± 0.041 | 1.19 ± 0.15 | 1.21 ± 0.073 |
| KKIRNVPVRDGVTIEFS [RPL9A] | 2.59 ± 0.11 | 2.55 ± 0.15 | 2.43 ± 0.16 | 3.21 ± 0.092 |
| KKLATRPKCGDCGSALQ [RPL34A] | 2.52 ± 0.12 | 2.88 ± 0.16 | 2.31 ± 0.16 | 2.89 ± 0.12 |
| KKLELPKYIDELKTRDA [SWP82] | 3.03 ± 0.097 | 3.39 ± 0.092 | 2.78 ± 0.077 | 3.48 ± 0.071 |
| KKLFQKKENLTRDETVS [YML103C/NUP188] | 2.65 ± 0.23 | 3.29 ± 0.12 | 3.01 ± 0.08 | 3.3 ± 0.088 |
| KKLKAVRIIKHTLDIIN [RPS5] | 2 ± 0.066 | 2.01 ± 0.048 | 1.91 ± 0.057 | 2.36 ± 0.051 |
